# Test results: IntAct's records for PubMed 24744375
# B1: Disease resistance protein RPS4 (Arabidopsis thaliana (Mouse-ear cress)), Q9XGM3 (parent)
# chain: METSSISTVEDKPPQHQVFINFRGADLRRRFVSHLVTALKLNNINVFIDDYEDRGQPLDVLLKRIEESKIVLAIFSGNYTESVWCVRELEKIKDCTDEGTLVAIPIFYKLEPSTVRDLKGKFGDRFRSMAKGDERKKKWKEAFNLIPNIMGIIIDKKSVESEKVNEIVKAVKTALTGIPPEGSHNAVVGALGNSNAGTSSGDKKHETFGNEQRLKDLEEKLDRDKYKGTRIIGVVGMPGIGKTTLLKELYKTWQGKFSRHALIDQIRVKSKHLELDRLPQMLLGELSKLNHPHVDNLKDPYSQLHERKVLVVLDDVSKREQIDALREILDWIKEGKEGSRVVIATSDMSLTNGLVDDTYMVQNLNHRDSLQLFHYHAFIDDQANPQKKDFMKLSEGFVHYARGHPLALKVLGGELNKKSMDHWNSKMKKLAQSPSPNIVSVFQVSYDELTTAQKDAFLDIACFRSQDKDYVESLLASSDLGSAEAMSAVKSLTDKFLINTCDGRVEMHDLLYKFSREVDLKASNQDGSRQRRLWLHQHIIKGGIINVLQNKMKAANVRGIFLDLSEVEDETSLDRDHFINMGNLRYLKFYNSHCPQECKTNNKINIPDKLKLPLKEVRCLHWLKFPLETLPNDFNPINLVDLKLPYSEMEQLWEGDKDTPCLRWVDLNHSSKLCSLSGLSKAEKLQRLNLEGCTTLKAFPHDMKKMKMLAFLNLKGCTSLESLPEMNLISLKTLTLSGCSTFKEFPLISDNIETLYLDGTAISQLPMNMEKLQRLVVLNMKDCKMLEEIPGRVGELKALQELILSDCLNLKIFPEIDISFLNILLLDGTAIEVMPQLPSVQYLCLSRNAKISCLPVGISQLSQLKWLDLKYCTSLTSVPEFPPNLQCLDAHGCSSLKTVSKPLARIMPTEQNHSTFIFTNCENLEQAAKEEITSYAQRKCQLLSYARKRYNGGLVSESLFSTCFPGCEVPSWFCHETVGSELEVKLLPHWHDKKLAGIALCAVVSCLDPQDQVSRLSVTCTFKVKDEDKSWVAYTCPVGSWTRHGGGKDKIELDHVFIGYTSCPHTIKCHEEGNSDECNPTEASLKFTVTGGTSENGKYKVLKCGLSLVYAKDKDKNSALETKYDMLIGKSFQETSEGVDGRVKKTKGKYVMPVEKNFQETTEGVDGRVNKKKKTRMDNGRPKKKQRSGRDDNQTRMQVELQEGNINSVIMHTVKNF
# partner: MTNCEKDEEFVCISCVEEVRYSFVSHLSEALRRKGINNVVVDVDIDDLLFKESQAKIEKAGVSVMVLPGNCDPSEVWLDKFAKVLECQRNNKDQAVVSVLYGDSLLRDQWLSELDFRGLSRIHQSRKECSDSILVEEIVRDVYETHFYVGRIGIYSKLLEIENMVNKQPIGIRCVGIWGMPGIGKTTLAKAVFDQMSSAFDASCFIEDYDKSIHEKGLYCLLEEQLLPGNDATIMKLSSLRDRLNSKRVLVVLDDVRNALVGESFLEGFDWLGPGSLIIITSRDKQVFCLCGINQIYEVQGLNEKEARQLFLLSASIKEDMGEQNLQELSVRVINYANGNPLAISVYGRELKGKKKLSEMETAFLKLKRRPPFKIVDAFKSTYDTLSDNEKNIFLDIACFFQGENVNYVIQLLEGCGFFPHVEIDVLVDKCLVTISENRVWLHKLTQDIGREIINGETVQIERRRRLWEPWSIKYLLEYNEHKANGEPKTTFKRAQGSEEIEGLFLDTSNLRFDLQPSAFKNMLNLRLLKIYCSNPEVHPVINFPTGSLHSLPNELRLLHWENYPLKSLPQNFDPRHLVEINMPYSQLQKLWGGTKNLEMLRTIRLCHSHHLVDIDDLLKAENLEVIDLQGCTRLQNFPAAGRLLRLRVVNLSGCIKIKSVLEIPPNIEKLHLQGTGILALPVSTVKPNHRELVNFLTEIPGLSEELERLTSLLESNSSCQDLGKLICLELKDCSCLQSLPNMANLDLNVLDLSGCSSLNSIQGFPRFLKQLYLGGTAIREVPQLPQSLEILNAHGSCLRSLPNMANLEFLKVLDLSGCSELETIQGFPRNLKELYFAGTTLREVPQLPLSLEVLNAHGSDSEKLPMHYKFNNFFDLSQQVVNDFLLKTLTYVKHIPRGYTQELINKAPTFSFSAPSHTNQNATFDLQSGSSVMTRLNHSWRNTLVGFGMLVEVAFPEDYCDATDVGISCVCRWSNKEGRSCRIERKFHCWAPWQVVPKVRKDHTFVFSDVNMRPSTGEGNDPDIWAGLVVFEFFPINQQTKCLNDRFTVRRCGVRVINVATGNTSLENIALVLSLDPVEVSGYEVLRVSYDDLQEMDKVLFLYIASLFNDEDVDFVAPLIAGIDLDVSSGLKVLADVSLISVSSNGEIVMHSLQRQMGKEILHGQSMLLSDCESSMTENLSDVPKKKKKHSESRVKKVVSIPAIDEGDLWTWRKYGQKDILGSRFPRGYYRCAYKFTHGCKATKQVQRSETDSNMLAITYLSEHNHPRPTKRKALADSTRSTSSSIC
# B2: Disease resistance protein RRS1 (Arabidopsis thaliana (Mouse-ear cress)), P0DKH5 (parent)
# chain: B1 partner
# partner: B1 chain
# Variants of: B1
# Settings: with wrk52_arath RRS1, P0DKH5
row,Variant,effect of a mutation on the interaction
1,R30A,disrupting interaction strength
2,R30E,disrupting interaction strength
3,R29A,disrupting interaction strength
4,S33A,disrupting interaction strength

# Further lines, results first:
row,effect of a mutation on the interaction,Variant
1,disrupting interaction strength,E160A
2,disrupting interaction strength,S33A;H34A
3,disrupting interaction strength,K157A

# Variants of: B1
# Settings: with wrk52_arath RRS1, P0DKH5
# Remark: another data set of the same source
row,effect of a mutation on the interaction,Variant
1,disrupting interaction strength,H34A

# Variants of: B2
# Settings: with rps4_arath RPS4, Q9XGM3
row,Variant,effect of a mutation on the interaction
1,S25A,disrupting interaction strength
2,R20A,disrupting interaction strength
3,S25A;H26A,disrupting interaction strength

# Next, values leading:
row,effect of a mutation on the interaction,Variant
1,disrupting interaction strength,D131A
2,disrupting interaction strength,Y101A
3,disrupting interaction strength,E128A
4,disrupting interaction strength,D103R
5,disrupting interaction strength,D103A

# Variants of: B2
# Settings: with rps4_arath RPS4, Q9XGM3
# Remark: another data set of the same source
row,effect of a mutation on the interaction,Variant
1,disrupting interaction strength,H26A
